Laboratory results taken from the supplement of paper PMC7125110.
± gives the standard error. Fewer inactive variants are shown than the library holds.

B1: glmS ribozyme (parent)
chain: AUAAAAGCGCCAGAACUACAGAAAUGUAGUUGACGAGGAGGAGGUUUAUCGAAUUUUCGGCGGAUGCCUCCAAA

Legend:
Details in all cases: with glucosamine-6-phosphate
glucosamine-6-phosphate [1] = variants of: B1; assay: self-cleavage kobs at 40 uM GlcN6P; higher = faster cleavage; RNA array
Outline: (§1)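 kobs was derived by fitting per-tile medians to one- or two-exponential decays after normalising signals to baseline and to non-cleaving reference variants. Those signals came from barcoded ribozyme variants transcribed in situ by E. coli RNA polymerase on sequenced MiSeq chips, followed through a hybridised Cy3 probe at 37 °C and imaged over ~14 h. Glucosamine-6-phosphate (40 μM to 10 mM) in HEPES/KCl/Mg(OAc)2 buffer was flowed in. Weighted Michaelis–Menten fits across concentrations then gave kcat and KM.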

glucosamine-6-phosphate [2] = variants of: B1; assay: self-cleavage kobs at 10000 uM GlcN6P; higher = faster cleavage; RNA array
Outline: as §1

glucosamine-6-phosphate [3] = variants of: B1; assay: self-cleavage kobs at 160 uM GlcN6P; higher = faster cleavage; RNA array
Outline: as §1

glucosamine-6-phosphate [4] = variants of: B1; assay: self-cleavage kobs at 640 uM GlcN6P; higher = faster cleavage; RNA array
Outline: as §1

glucosamine-6-phosphate [5] = variants of: B1; assay: self-cleavage kobs at 2500 uM GlcN6P; higher = faster cleavage; RNA array
Outline: as §1

Row | Variant | self-cleavage kobs at 40 uM GlcN6P (glucosamine-6-phosphate [1]) [s⁻¹] | self-cleavage kobs at 10000 uM GlcN6P (glucosamine-6-phosphate [2]) [s⁻¹] | self-cleavage kobs at 160 uM GlcN6P (glucosamine-6-phosphate [3]) [s⁻¹] | self-cleavage kobs at 640 uM GlcN6P (glucosamine-6-phosphate [4]) [s⁻¹] | self-cleavage kobs at 2500 uM GlcN6P (glucosamine-6-phosphate [5]) [s⁻¹]
1 | C11U C58G C67U U69G | 3.48e-05 ± 1.2e-05 | 6.72e-05 ± 1.3e-05 |  |  | 
2 | A12U A52G | 8.7e-05 ± 1.3e-05 | 0.00785 ± 0.0012 | 0.000171 ± 6.4e-05 | 0.000717 ± 0.00014 | 0.00267 ± 0.00049
3 | A12G G63A A64U | < 1e-05 |  | < 1e-05 |  | < 1e-05
4 | C10U G43U C70A | < 1e-05 |  |  |  | 
5 | A12G C61G | < 1e-05 | < 1e-05 |  |  | 
6 | A12C A14C C70U | < 1e-05 | 8.48e-05 ± 1.8e-05 |  |  | 9.06e-05 ± 1.4e-05
7 | C11A G43U | < 1e-05 | < 1e-05 | < 1e-05 | < 1e-05 | 
8 | A12C G43C | < 1e-05 |  | < 1e-05 | < 1e-05 | 
9 | A12U G32C C67U | < 1e-05 |  |  |  | 
10 | C11U U65A | < 1e-05 |  |  | 0.000121 ± 3.6e-05 | 9.22e-05 ± 2e-05
11 | C11U C34U | < 1e-05 | < 1e-05 |  | < 1e-05 | 
12 | C10U G40A A48C | < 1e-05 |  |  |  | 
13 | A12G A15C G35U C71U | < 1e-05 |  | < 1e-05 |  | 
14 | A12C U46C C50G G63U C67G C68U | 0.000202 ± 7.2e-05 | 0.000454 ± 0.00012 |  |  | 
15 | A12G G13A C61G | < 1e-05 | < 1e-05 |  |  | 
16 | C10U G41A | < 1e-05 | < 1e-05 | < 1e-05 | < 1e-05 | < 1e-05
17 | A12U G44U U57A G59A | < 1e-05 | < 1e-05 |  |  | 
18 | C10U G13C G40A | < 1e-05 |  | < 1e-05 |  | 
19 | A12C C58U G63U | < 1e-05 | < 1e-05 |  |  | 
20 | A12G G32A A33U C70G | < 1e-05 |  | < 1e-05 | < 1e-05 | 
21 | C11U A52U G60C | < 1e-05 | < 1e-05 |  | < 1e-05 | 
22 | A12U G29A | 0.00084 ± 0.00025 | 0.041 ± 0.012 | 0.000905 ± 0.0002 | 0.00253 ± 0.00054 | 0.00409 ± 0.0011
23 | A12U G29C | 0.00079 ± 0.00011 | 0.0212 ± 0.0041 | 0.000653 ± 0.00013 | 0.00446 ± 0.00073 | 0.00717 ± 0.0026
24 | C11G A52C | < 1e-05 | < 1e-05 | < 1e-05 | < 1e-05 | < 1e-05

Row | Variant | self-cleavage kobs at 40 uM GlcN6P (glucosamine-6-phosphate [1]) [s⁻¹] | self-cleavage kobs at 10000 uM GlcN6P (glucosamine-6-phosphate [2]) [s⁻¹] | self-cleavage kobs at 160 uM GlcN6P (glucosamine-6-phosphate [3]) [s⁻¹] | self-cleavage kobs at 640 uM GlcN6P (glucosamine-6-phosphate [4]) [s⁻¹] | self-cleavage kobs at 2500 uM GlcN6P (glucosamine-6-phosphate [5]) [s⁻¹]
25 | A12G A14U G38A | < 1e-05 | < 1e-05 |  |  | 
26 | C11U A15C A48U G60A | < 1e-05 | < 1e-05 |  |  | 
27 | C11U G29A G32U C50G | 7.73e-05 ± 3.1e-05 | 7.84e-05 ± 2.3e-05 |  |  | 
28 | C10U G37U G43U A52G G60U | < 1e-05 | < 1e-05 |  |  | < 1e-05
29 | A12U A14G C16G | 0.000643 ± 0.00021 |  |  |  | 
30 | C11A C50A C68G | 5.45e-05 ± 1.8e-05 | 3.73e-05 ± 1.7e-05 | 0.000352 ± 0.0001 | 0.000154 ± 5.6e-05 | 6.2e-05 ± 2.5e-05
31 | C11U A14U G43U U54A G63A | < 1e-05 |  |  |  | < 1e-05
32 | A12C G38C G44A A64G | < 1e-05 |  |  |  | < 1e-05
33 | A12U U30A C70U | 0.000748 ± 0.00013 | 0.0461 ± 0.017 |  |  | 
34 | A12C A33C C71G | < 1e-05 | < 1e-05 |  |  | 
35 | C11U A33C A52G C67A | < 1e-05 |  |  |  | 
36 | C11A A14G G29A G35A A53G | < 1e-05 |  |  |  | 
37 | C10U C16U U47C U65C | < 1e-05 |  |  |  | 
38 | C11A A12C G44C U49A | < 1e-05 | < 1e-05 | < 1e-05 | < 1e-05 | < 1e-05
39 | A12C A15C U47A U49A | < 1e-05 | < 1e-05 |  |  | 
40 | C11U A48G A53G | < 1e-05 | < 1e-05 |  |  | 
41 | C11U G44C G60U | < 1e-05 | < 1e-05 |  |  | 
42 | C11G G60C | < 1e-05 | < 1e-05 | < 1e-05 | < 1e-05 | 
43 | C11A C34G G43C G51U G60C | < 1e-05 |  |  | < 1e-05 | 
44 | A12U G40A U45C | 6.12e-05 ± 2e-05 | 0.00175 ± 0.0003 |  |  | 
45 | A12G C16U C34A A39U G60A U69G | < 1e-05 |  |  |  | 
46 | C11A A53U U57G C71A | 0.000108 ± 2.7e-05 | 9.23e-05 ± 2.2e-05 |  | 0.000248 ± 7.4e-05 | 0.000141 ± 6.7e-05
47 | C11U G62C | < 1e-05 |  | < 1e-05 | < 1e-05 | < 1e-05
48 | C11A C68A | < 1e-05 |  |  |  | 
